Measurements taken from publication PMC5698806 (Molecular cell, 2017).
Where a chain is given by its changes, count along the chain named. Names may count otherwise. “And” between values parts separate entries of the source, which are not always exact repeats. Equal entries are not always repeated.

T1: TIN2 (human, UniProt Q9BSI4 1-451)
T1 sequence (looked up): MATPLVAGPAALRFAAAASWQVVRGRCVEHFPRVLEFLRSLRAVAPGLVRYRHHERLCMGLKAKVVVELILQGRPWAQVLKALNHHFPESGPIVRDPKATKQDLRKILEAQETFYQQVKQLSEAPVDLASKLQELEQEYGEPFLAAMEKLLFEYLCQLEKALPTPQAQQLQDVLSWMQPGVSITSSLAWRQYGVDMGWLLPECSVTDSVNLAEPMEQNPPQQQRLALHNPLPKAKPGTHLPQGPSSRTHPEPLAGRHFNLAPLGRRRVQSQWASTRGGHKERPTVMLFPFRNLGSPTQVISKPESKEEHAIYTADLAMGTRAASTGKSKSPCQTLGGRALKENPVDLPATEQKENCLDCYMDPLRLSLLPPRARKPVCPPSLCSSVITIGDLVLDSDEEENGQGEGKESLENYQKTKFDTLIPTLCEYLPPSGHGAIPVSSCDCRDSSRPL

T2: Tpz1 (full length, in S. pombe) (S. pombe, UniProt O14246 1-508)
T2 sequence (looked up): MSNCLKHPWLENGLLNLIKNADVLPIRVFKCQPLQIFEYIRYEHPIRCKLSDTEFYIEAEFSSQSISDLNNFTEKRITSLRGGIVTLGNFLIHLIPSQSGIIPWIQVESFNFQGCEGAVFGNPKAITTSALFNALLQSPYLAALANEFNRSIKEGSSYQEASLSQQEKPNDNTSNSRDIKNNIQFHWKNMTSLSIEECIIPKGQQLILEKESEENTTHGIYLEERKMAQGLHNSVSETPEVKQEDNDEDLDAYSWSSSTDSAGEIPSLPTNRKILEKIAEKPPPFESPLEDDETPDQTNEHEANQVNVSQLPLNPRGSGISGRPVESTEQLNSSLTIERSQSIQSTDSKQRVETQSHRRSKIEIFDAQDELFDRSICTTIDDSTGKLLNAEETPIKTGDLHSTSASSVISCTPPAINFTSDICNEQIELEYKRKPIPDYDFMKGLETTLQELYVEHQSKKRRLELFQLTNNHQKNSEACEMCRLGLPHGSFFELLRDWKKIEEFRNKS

T3: Poz1^L14R-Tpz1^475–508 (S. pombe, UniProt O14246 475-508; O13852 1-249, L14R)
T3 sequence (looked up) 1: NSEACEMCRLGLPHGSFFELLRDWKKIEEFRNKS
T3 sequence (looked up) 2: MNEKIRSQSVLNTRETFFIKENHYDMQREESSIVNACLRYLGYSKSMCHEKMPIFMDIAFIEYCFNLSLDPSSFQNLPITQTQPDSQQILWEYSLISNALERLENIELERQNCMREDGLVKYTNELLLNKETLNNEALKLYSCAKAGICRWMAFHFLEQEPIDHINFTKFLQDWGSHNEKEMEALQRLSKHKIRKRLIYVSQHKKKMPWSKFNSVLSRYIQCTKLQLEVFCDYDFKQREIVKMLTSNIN

T4: Poz1ΔN (Poz1^29-249) (S. pombe, UniProt O13852 29-249)
T4 sequence (looked up): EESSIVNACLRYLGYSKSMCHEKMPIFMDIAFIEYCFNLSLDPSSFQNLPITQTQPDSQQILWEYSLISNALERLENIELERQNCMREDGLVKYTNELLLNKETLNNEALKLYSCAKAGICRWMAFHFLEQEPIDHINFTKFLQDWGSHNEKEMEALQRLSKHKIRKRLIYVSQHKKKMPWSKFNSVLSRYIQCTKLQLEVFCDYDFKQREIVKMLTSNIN

T5: Tpz1-Poz1ΔN complex (S. pombe, UniProt O14246 475-508; O13852 29-249)
T5 sequence (looked up) 1: T3 sequence (looked up) 1
T5 sequence (looked up) 2: T4 sequence (looked up)

T6: Rap1^467–496 (S. pombe, UniProt Q96TL7 467-496)
T6 chain (looked up): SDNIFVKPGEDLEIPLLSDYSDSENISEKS

B1: TRF2^382-424 (domain or fragment, human, UniProt Q15554 382-424, looked up)
chain: APADGEGGSELQPKNKRMTISRLVLEEDSQSTEPSAGLNSSQE
B2: Tpz1^475–508-Poz1 complex (complex, S. pombe)
chain 1: T3 sequence (looked up) 1
chain 2: T3 sequence (looked up) 2 with R14L
B3: Poz1 (full length) (natural protein, S. pombe, UniProt O13852 1-249, looked up)
chain: T3 sequence (looked up) 2 with R14L
B4: GST-Rap1^446-512 (domain or fragment, S. pombe, UniProt Q96TL7 446-512, looked up)
chain: EKTLRETSFRSLDDMSLRKSNSDNIFVKPGEDLEIPLLSDYSDSENISEKSSDDEEAFEKQVTSSYS
B5: Poz1-L14R (in S. pombe) (natural protein, UniProt O13852 1-249, looked up)
chain: T3 sequence (looked up) 2
B6: Biotin-SUMO-tagged Rap1^446-512 (domain or fragment, S. pombe, UniProt Q96TL7 446-512, looked up)
chain: B4 chain
modifications: also: SUMO tag fused, biotin on Avi tag
B7: Rap1^446-523 (domain or fragment, S. pombe, UniProt Q96TL7 446-523, looked up)
chain: EKTLRETSFRSLDDMSLRKSNSDNIFVKPGEDLEIPLLSDYSDSENISEKSSDDEEAFEKQVTSSYSSPIKVKSQGKS
B8: GST-Tpz1^406-508 (domain or fragment, S. pombe, UniProt O14246 406-508, looked up)
chain: SSVISCTPPAINFTSDICNEQIELEYKRKPIPDYDFMKGLETTLQELYVEHQSKKRRLELFQLTNNHQKNSEACEMCRLGLPHGSFFELLRDWKKIEEFRNKS
B9: Rap1^470-494 (domain or fragment, S. pombe, UniProt Q96TL7 470-494, looked up)
chain: IFVKPGEDLEIPLLSDYSDSENISE
B10: Poz1ΔN (in S. pombe) (domain or fragment, UniProt O13852 29-249, looked up)
chain: T4 sequence (looked up)
B11: Poz1 of the improved crystal construct Tpz1^475–508-Poz1-Rap1^467–496 (residues 73–86 replaced by GGA, 117–126 by GGGSA) (natural protein, S. pombe)
chain: MNEKIRSQSVLNTLETFFIKENHYDMQREESSIVNACLRYLGYSKSMCHEKMPIFMDIAFIEYCFNLSLDPSGGAQQILWEYSLISNALERLENIELERQNCMREGGGSALLNKETLNNEALKLYSCAKAGICRWMAFHFLEQEPIDHINFTKFLQDWGSHNEKEMEALQRLSKHKIRKRLIYVSQHKKKMPWSKFNSVLSRYIQCTKLQLEVFCDYDFKQREIVKMLTSNIN

What was measured:
[1] = target: T1, TIN2; assay: ITC
[2] = target: B6; assay: BLI
[3] = target: B2; assay: pull-down
[4] = target: B3; assay: pull-down
[5] = target: T2, Tpz1 (full length, in S. pombe); assay: co-IP
[6] = target: T3, Poz1^L14R-Tpz1^475–508; assay: BLI
[7] = target: T4, Poz1ΔN (Poz1^29-249); assay: BLI
[8] = target: B2; assay: ITC
[9] = target: T5, Tpz1-Poz1ΔN complex; assay: ITC
[10] = target: B3; assay: ITC
[11] = target: B3; assay: crystal structure
[12] = target: T6, Rap1^467–496; assay: crystal structure

Binder: B1
Kd [1]: 3.11 µM

Binder: B2
koff, fold slower than with free Poz1 [2]: ~60 fold

Binder: B3
kon, fold against Tpz1-bound Poz1 [2]: ~5 fold

Binder: B4
binding result [3]: binds
binding result [4]: binds

Binder: B5
fold decrease of the co-IP against wild-type cells [5]: ~3 fold

Binder: B6
binding result [6]: binds
binding result [7]: binds

Binder: B7
Kd [8]: 0.48 µM
Kd [9]: 4.58 µM
Kd [10]: 5.62 µM and 4.95 µM

Binder: B8
binding result [4]: binds

Binder: B9
binding result [11]: binds

Binder: B10
fold decrease of the co-IP against wild-type cells [5]: ~3 fold

Binder: B11
binding result [12]: binds
